Data published in publication PMC6925130, “Cleaved CD31 as a target for in vivo molecular imaging of inflammation” (Scientific Reports, 2019).
Non-standard residues stand in square brackets, D forms with d. Residues, ends and D or L forms follow the SMILES beside them. *: point of attachment. HYNIC = NNc1ccc(C(=O)*)cn1; PEG3 = NCCOCCOCCOCCC(=O)O

Assays:
[1] = system: turpentine injected hindlimb (sterile acute inflammation); assay: SPECT/CT and PET/MRI imaging of turpentine oil-induced sterile acute inflammation; type: in vivo, male Wistar rats; details: turpentine injected hindlimb / saline injected hindlimb; PET/MRI 1 h p.i., retro-orbital ≈20 MBq; n = 23
Description: Two to 3-month-old adult male Wistar rats, weighing 250–300 g were used. The animals were housed in a controlled environment. The procedures and animal care complied with the principles formulated by the National Society for Medical Research. All methods were performed in accordance with the guidelines of the French Directorate of Veterinary Services (authorization: No. 75-214). All methods were approved by the animal ethics committee of the Claude Bernard Institute (APAFIS #14821, Paris, France). Aseptic inflammation was obtained according to a standardized procedure consisting of turpentine oil injection characterized by a massive local influx of activated inflammatory cells[33],[34]. […]
Imaging procedures of ^99mTc-HYNIC-P8RI (D and L) were performed using Single Photon Emission Computed Tomography coupled to X-ray computed tomography (SPECT/CT). […] Reconstructed slices were visually assessed in 3 planes (axial, coronal, and sagittal). […]
Three-dimensional Regions of Interests (3D-ROIs) were placed on the inflammatory muscles and the mean signal per volume unit (kBq/mL) was measured. Assuming a tissue density of 1 g/mL, the radioactivity contained in the ROI was divided by the dose administered to the animal and the volume of the ROI to obtain an imaging ROI-derived % ID/g. […]

in vivo = assay: in vivo; parameters: species or system male Wistar rats; details: male, Wistar, rat, iv, 30 MBq, total radioactivity, Biodistribution
Description: Biodistribution of ^99mTc-HYNIC-D-P8RI was performed 15, 30, 90 min and 24 h post-injection. Animals (n = 3 for each time point) were injected intravenously through penis vein with 30 ± 3 MBq of ^99mTc-HYNIC-D-P8RI. They were sacrificed by isoflurane overdose and blood, heart, liver, thyroid, spleen, kidney, brain, intestine and muscle tissues were harvested and counted using a well counter. Results were expressed as the percentage of injected dose per gram of tissue (% ID/g). To characterize radiotracer elimination and potential degradation, rat urine was collected 90 min p.i, passed through a 0.22 µm PVDF filter (Durapore^TM 13 mm, Merck), and analyzed using RP-HPLC as described in Supplementary Data.

physchem = type: physicochemical; details: pH 7.2
Description: 500 µL of^ 99mTc-HYNIC-D-P8RI in PBS (pH 7.2) was added to 500 µL of octanol in a 1.5 mL conical vial. After 15 min of vortexing, the vial was centrifuged at 5000xg for 3 min. A 100 µL aliquot of both phases was collected in triplicate and counted with a gamma counter then log P values were calculated.

in vitro [2] = type: in vitro ADME; details: human, plasma
Description: Plasma stability was assessed in triplicate at 1, 2 and 4 h after incubation of the radiolabeled D-P8RI peptide (final concentration 100 pmol/mL) in human plasma at 37 °C with RCP ≥94%. After precipitation of plasma proteins with acetonitrile and centrifugation (15000 × g, 10 min), the supernatant was analyzed by RP-HPLC as described in Supplementary Data. Plasma stability was expressed in RCP (%).

in vitro [3] = type: in vitro ADME; details: human, plasma; remark: listed apart in the source
Description: Protein binding of the purified radiolabeled D-P8RI peptide (final concentration 100 pmol/mL) was determined in triplicate after 0, 0.5, 1, 2, 3 and 4 h of incubation in fresh human plasma (collected in citrate tubes) at 37 °C and analyzed after size exclusion chromatography (illustra Microspin G-50 Columns, Sephadex G-50, GE Healthcare, UK). Simultaneously, radiolabeled peptide was incubated in PBS at 37 °C as a control. G-50 columns were prespun at 2000 × g for 1 min then 20 μL of mixture was added and the column was centrifuged at 2000 × g for 2 min. Columns and eluates were counted on a Wallac Wizard 3″ 1480 (Perkin Elmer, MA, USA), then protein binding was calculated using the following activity (A) ratio: A eluate/(A column + A eluate).

With O=C[C@H]([18F])[C@@H](O)[C@H](O)[C@H](O)CO [[^18F]FDG, 2-deoxy-2-[^18F]fluoro-D-glucose] the “Mean signal ratio (TIH/SIH), PET/MRI” value [1] was 4.49 ± 0.43.

With CC(C)C[C@@H](NC(=O)[C@@H](C)NC(=O)[C@H]1CCCN1C(=O)[C@@H](Cc1c[nH]c2ccccc12)NC(=O)[C@@H](CCCCN)NC(=O)CCOCCOCCOCCNC(=O)c1ccc(NN)nc1)C(=O)N[C@H](Cc1ccccc1)C(=O)N[C@@H](C(=O)N[C@H](CCCNC(=N)N)C(=O)O)C(C)C [^99mTc-HYNIC-D-P8RI, metal not drawn] ({HYNIC-PEG3}-[dK][dW][dP][dA][dL][dF][dV][dR]-OH) the tissue uptake at 1.5 h (in vivo; bladder) was 61.4 ± 13.4 %ID/g, the tissue uptake at 0.25 h (in vivo; blood) was 9.74 ± 1.21 %ID/g and the tissue uptake at 24 h (in vivo; blood) was 0.04 ± 0.02 %ID/g. It also gave a tissue uptake at 1.5 h (in vivo; kidney) of 14 ± 2.93 %ID/g, a logD (physchem) of -2.92 ± 0.04 and a remaining at 1 h, 100 pmol/mL (in vitro [2]) of 93.02 ± 0.04%. It also gave a remaining at 2 h, 100 pmol/mL (in vitro [2]) of 91.05 ± 0.02%, a fraction unbound at 0 h, 100 pmol/mL (in vitro [3]) of 0.928 and a fraction unbound at 0.5 h, 100 pmol/mL (in vitro [3]) of 0.952.
